Data published in the supplement of paper PMC10724198.
± gives the standard deviation of the averaged measurements.

Assays:
Saccharomyces cerevisiae [1] = test: protein stability index of tFT-peptide fusion (C-terminal peptide) (PSI (0-1 scale)); higher = more stable (slower turnover)
Experimental: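 MPS profiling in S. cerevisiae of the tFT-X12 degron library: putative degron peptides plus stable controls, 12 aa, fused to the C-terminus of a sfGFP-mCherry timer. Cells are FACS-sorted into 8 mCherry/sfGFP bins and deep-sequenced. PSI runs from 0 (unstable) to 1 (stable). Backgrounds are wild type, das1Δ and doa10Δ at 30 °C, and wild type, das1Δ, cdc34-1 and cdc53-1 at 37 °C; 2-3 technical replicates each.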

Saccharomyces cerevisiae [2] = test: as above; settings: genetic background: wild type; temperature: 30 C
[3] = genetic background: cdc34-1, temperature: 37 C
[4] = genetic background: cdc53-1, temperature: 37 C
[5] = genetic background: das1 deletion, temperature: 30 C
[6] = genetic background: das1 deletion, temperature: 37 C
[7] = genetic background: doa10 deletion, temperature: 30 C
[8] = genetic background: wild type, temperature: 30 C
[9] = genetic background: wild type, temperature: 37 C
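Note: PSI is a weighted mean of sequencing reads over stability bins, variants kept only with over 10 reads, mCherry proximal and sfGFP distal, peptide attached via GGGS linker.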

Sequence | protein stability index (Saccharomyces cerevisiae [1]; [3]) | protein stability index (Saccharomyces cerevisiae [1]; [4]) | protein stability index (Saccharomyces cerevisiae [1]; [5]) | protein stability index (Saccharomyces cerevisiae [1]; [6]) | protein stability index (Saccharomyces cerevisiae [1]; [7]) | protein stability index (Saccharomyces cerevisiae [1]; [8]) | protein stability index (Saccharomyces cerevisiae [1]; [9]) | protein stability index (Saccharomyces cerevisiae [2])
WSCFLLLLSLSL | 0.424 ± 0.056 | 0.4452 ± 0.0035 | 0.417 ± 0.039 | 0.5236 ± 0.0051 | 0.482 ± 0.013 | 0.411 ± 0.011 | 0.496 ± 0.011 | 0.45 ± 0.0067
WCAGCLGWWLQS | 0.683 ± 0.059 | 0.8029 ± 0.003 | 0.694 ± 0.015 | 0.791 ± 0.014 | 0.246 ± 0.01 | 0.316 ± 0.038 | 0.548 ± 0.012 | 0.415 ± 0.028
SVFRFLFLALLV | 0.2 ± 0.052 | 0.162 ± 0.018 | 0.282 ± 0.029 | 0.352 ± 0.023 | 0.173 ± 0.0056 | 0.145 ± 0.0078 | 0.18 ± 0.016 | 0.191 ± 0.016
SRPEPNGLRKLV | 0.587 ± 0.009 | 0.727 ± 0.015 | 0.605 ± 0.029 | 0.751 ± 0.018 | 0.139 ± 0.024 | 0.172 ± 0.024 | 0.315 ± 0.052 | 0.293 ± 0.069
GLIICRRCLWCC | 0.49 ± 0.01 | 0.527 ± 0.029 | 0.36 ± 0.031 | 0.5909 ± 0.00095 | 0.1721 ± 0.00088 | 0.182 ± 0.021 | 0.255 ± 0.01 | 0.267 ± 0.05
LLRFFPCFLGVN | 0.653 ± 0.018 | 0.6962 ± 0.0039 | 0.657 ± 0.043 | 0.701 ± 0.012 | 0.43 ± 0.023 | 0.425 ± 0.032 | 0.579 ± 0.021 | 0.484 ± 0.022
PSCLLVAPRFSS | 0.672 ± 0.036 | 0.745 ± 0.015 | 0.67 ± 0.022 | 0.712 ± 0.027 | 0.677 ± 0.014 | 0.694 ± 0.019 | 0.715 ± 0.0045 | 0.755 ± 0.017
GLFVGCWVFLVL | 0.344 ± 0.0095 | 0.445 ± 0.0049 | 0.307 ± 0.044 | 0.525 ± 0.012 | 0.294 ± 0.0069 | 0.297 ± 0.037 | 0.486 ± 0.015 | 0.387 ± 0.061
VLAFFPLFFFLS | 0.434 ± 0.035 | 0.5049 ± 0.0042 | 0.439 ± 0.033 | 0.5732 ± 0.0029 | 0.144 ± 0.013 | 0.126 ± 0.015 | 0.245 ± 0.0039 | 0.2054 ± 0.002
CAGRQGRERGHT | 0.694 ± 0.03 | 0.7217 ± 0.0042 | 0.658 ± 0.043 | 0.722 ± 0.016 | 0.63499 ± 0.00057 | 0.658 ± 0.013 | 0.717 ± 0.036 | 0.695 ± 0.011
VGVVLWWVVLMV | 0.118 ± 0.014 | 0.181 ± 0.0027 | 0.184 ± 0.024 | 0.28 ± 0.0034 | 0.154 ± 0.012 | 0.16 ± 0.029 | 0.251 ± 0.0034 | 0.241 ± 0.017
YPFIPLIVCGFF | 0.401 ± 0.028 | 0.41 ± 0.0085 | 0.344 ± 0.024 | 0.4747 ± 0.00094 | 0.395 ± 0.019 | 0.338 ± 0.018 | 0.448 ± 0.01 | 0.404 ± 0.02
TLCFRLSWVLLV | 0.0812 ± 0.028 | 0.15 ± 0.013 | 0.144 ± 0.02 | 0.22 ± 0.014 | 0.0335 ± 0.006 | 0.0265 ± 0.0028 | 0.0672 ± 0.022 | 0.0528 ± 0.037
LSRFGSTCPSGL | 0.72 ± 0.038 | 0.7696 ± 0.0062 | 0.642 ± 0.011 | 0.765 ± 0.032 | 0.6358 ± 0.0032 | 0.638 ± 0.012 | 0.7477 ± 0.0031 | 0.724 ± 0.0079
LLHFVLYFLSCT | 0.51 ± 0.057 | 0.548 ± 0.0012 | 0.442 ± 0.03 | 0.5554 ± 0.0051 | 0.42 ± 0.03 | 0.434 ± 0.01 | 0.549 ± 0.012 | 0.456 ± 0.018
FEVLINIWFLSA | 0.272 ± 0.028 | 0.388 ± 0.026 | 0.3 ± 0.042 | 0.422 ± 0.0066 | 0.185 ± 0.011 | 0.19 ± 0.018 | 0.324 ± 0.013 | 0.262 ± 0.019
SRDSLLTLIPSC | 0.646 ± 0.058 | 0.733 ± 0.0095 | 0.6189 ± 0.002 | 0.7393 ± 0.0043 | 0.622 ± 0.017 | 0.636 ± 0.013 | 0.697 ± 0.0081 | 0.692 ± 0.037
GVVVGVLLVCGW | 0.268 ± 0.028 | 0.435 ± 0.0061 | 0.28 ± 0.037 | 0.489 ± 0.0051 | 0.223 ± 0.016 | 0.265 ± 0.013 | 0.4614 ± 0.0016 | 0.36 ± 0.0081
FLAPPFLPPPPA | 0.693 ± 0.021 | 0.7351 ± 0.00039 | 0.672 ± 0.014 | 0.758 ± 0.016 | 0.683 ± 0.02 | 0.705 ± 0.011 | 0.737 ± 0.015 | 0.748 ± 0.016
PPLPPPPPHPPP | 0.458 ± 0.045 | 0.52 ± 0.019 | 0.477 ± 0.0095 | 0.521 ± 0.023 | 0.501 ± 0.017 | 0.493 ± 0.04 | 0.4959 ± 0.0011 | 0.488 ± 0.016

Sequence | protein stability index (Saccharomyces cerevisiae [1]; [3]) | protein stability index (Saccharomyces cerevisiae [1]; [4]) | protein stability index (Saccharomyces cerevisiae [1]; [5]) | protein stability index (Saccharomyces cerevisiae [1]; [6]) | protein stability index (Saccharomyces cerevisiae [1]; [7]) | protein stability index (Saccharomyces cerevisiae [1]; [8]) | protein stability index (Saccharomyces cerevisiae [1]; [9]) | protein stability index (Saccharomyces cerevisiae [2])
VFFLVHFHLPMF | 0.531 ± 0.053 | 0.57 ± 0.041 | 0.414 ± 0.031 | 0.561 ± 0.01 | 0.394 ± 0.0077 | 0.401 ± 0.019 | 0.536 ± 0.03 | 0.455 ± 0.05
YCAAVCFWGLYC | 0.522 ± 0.015 | 0.654 ± 0.023 | 0.541 ± 0.029 | 0.668 ± 0.012 | 0.13 ± 0.0034 | 0.154 ± 0.013 | 0.233 ± 0.011 | 0.242 ± 0.024
LVRDEVLKVKLV | 0.6432 ± 0.004 | 0.718 ± 0.011 | 0.643 ± 0.018 | 0.722 ± 0.013 | 0.138 ± 0.0093 | 0.17 ± 0.021 | 0.244 ± 0.0095 | 0.297 ± 0.014
YIRINNIYWKKS | 0.58 ± 0.016 | 0.755 ± 0.024 | 0.669 ± 0.023 | 0.722 ± 0.012 | 0.182 ± 0.0071 | 0.227 ± 0.034 | 0.536 ± 0.032 | 0.399 ± 0.029
CPVSFSFCLKVL | 0.348 ± 0.019 | 0.431 ± 0.03 | 0.32 ± 0.026 | 0.468 ± 0.016 | 0.0628 ± 0.019 | 0.0823 ± 0.021 | 0.115 ± 0.063 | 0.045 ± 0.016
AFVVYSGSHGLV | 0.686 ± 0.0094 | 0.75 ± 0.032 | 0.659 ± 0.014 | 0.7518 ± 0.0027 | 0.648 ± 0.011 | 0.654 ± 0.014 | 0.7186 ± 0.003 | 0.57 ± 0.2
GCGWVFWVVDWG | 0.463 ± 0.017 | 0.566 ± 0.0098 | 0.402 ± 0.028 | 0.563 ± 0.0075 | 0.369 ± 0.01 | 0.398 ± 0.027 | 0.539 ± 0.026 | 0.4431 ± 0.0038
FPRQFVYLPLLF | 0.647 ± 0.064 | 0.709 ± 0.025 | 0.555 ± 0.011 | 0.696 ± 0.017 | 0.372 ± 0.018 | 0.402 ± 0.032 | 0.595 ± 0.02 | 0.487 ± 0.011
VIRFNSAPRFLV | 0.614 ± 0.054 | 0.7214 ± 0.0026 | 0.629 ± 0.026 | 0.7443 ± 0.0009 | 0.108 ± 0.031 | 0.125 ± 0.016 | 0.236 ± 0.0043 | 0.213 ± 0.047
LFFSFLFLATRC | 0.248 ± 0.012 | 0.209 ± 0.018 | 0.254 ± 0.045 | 0.39184 ± 0.00039 | 0.2246 ± 0.00043 | 0.193 ± 0.019 | 0.311 ± 0.016 | 0.236 ± 0.037
LSLCPVHRLLVL | 0.558 ± 0.02 | 0.632 ± 0.032 | 0.481 ± 0.025 | 0.624 ± 0.007 | 0.358 ± 0.0063 | 0.379 ± 0.034 | 0.5327 ± 0.0015 | 0.498 ± 0.03
YGWGFLFILTLM | 0.15 ± 0.032 | 0.153 ± 0.03 | 0.262 ± 0.038 | 0.317 ± 0.0042 | 0.14 ± 0.024 | 0.101 ± 0.018 | 0.151 ± 0.016 | 0.182 ± 0.01
LCSYSTIPLRLY | 0.619 ± 0.034 | 0.726 ± 0.013 | 0.614 ± 0.019 | 0.695 ± 0.022 | 0.188 ± 0.0019 | 0.231 ± 0.021 | 0.48 ± 0.013 | 0.329 ± 0.035
CSSIFSSSDCYA | 0.681 ± 0.059 | 0.7582 ± 0.0047 | 0.672 ± 0.029 | 0.7219 ± 0.0061 | 0.68 ± 0.01 | 0.68 ± 0.018 | 0.731 ± 0.011 | 0.7457 ± 0.0014
CSRTRLHCFTAS | 0.696 ± 0.062 | 0.7452 ± 0.0029 | 0.647 ± 0.028 | 0.74183 ± 0.00066 | 0.5808 ± 0.0019 | 0.585 ± 0.027 | 0.6796 ± 0.005 | 0.712 ± 0.011
LLLFTPFYLLLR | 0.0987 ± 0.033 | 0.0767 ± 0.0017 | 0.218 ± 0.021 | 0.27 ± 0.0065 | 0.525 ± 0.015 | 0.188 ± 0.037 | 0.219 ± 0.016 | 0.305 ± 0.011
SSLLPLLAQLVG | 0.594 ± 0.046 | 0.7484 ± 0.0013 | 0.581 ± 0.05 | 0.68255 ± 0.00041 | 0.252 ± 0.014 | 0.265 ± 0.039 | 0.411 ± 0.01 | 0.406 ± 0.05
LNSSVLRLRFFV | 0.542 ± 0.027 | 0.739 ± 0.063 | 0.607 ± 0.037 | 0.756 ± 0.04 | 0.0882 ± 0.011 | 0.098 ± 0.024 | 0.152 ± 0.041 | 0.2643 ± 0.0019
NDKGKKTKIKIV | 0.659 ± 0.025 | 0.72 ± 0.057 | 0.64 ± 0.067 | 0.7368 ± 0.0053 | 0.187 ± 0.011 | 0.185 ± 0.024 | 0.343 ± 0.029 | 0.254 ± 0.058
